In doi:10.1101/583542 (bioRxiv, 2019):

Legend:
Test in all cases: split reporter
[1] = molecular target: NRT2.1 S501D, rBiFC fusion (Arabidopsis thaliana, UniProt O82811 1-530, S501D)
[2] = molecular target: NRT2.1 S501A, rBiFC fusion (Arabidopsis thaliana, UniProt O82811 1-530, S501A)
[3] = molecular target: NRT2.1 wild type, rBiFC fusion (Arabidopsis thaliana, UniProt O82811 1-530)
Sequence of NRT2.1 wild type, rBiFC fusion (O82811 whole entry, the tested form may be a part): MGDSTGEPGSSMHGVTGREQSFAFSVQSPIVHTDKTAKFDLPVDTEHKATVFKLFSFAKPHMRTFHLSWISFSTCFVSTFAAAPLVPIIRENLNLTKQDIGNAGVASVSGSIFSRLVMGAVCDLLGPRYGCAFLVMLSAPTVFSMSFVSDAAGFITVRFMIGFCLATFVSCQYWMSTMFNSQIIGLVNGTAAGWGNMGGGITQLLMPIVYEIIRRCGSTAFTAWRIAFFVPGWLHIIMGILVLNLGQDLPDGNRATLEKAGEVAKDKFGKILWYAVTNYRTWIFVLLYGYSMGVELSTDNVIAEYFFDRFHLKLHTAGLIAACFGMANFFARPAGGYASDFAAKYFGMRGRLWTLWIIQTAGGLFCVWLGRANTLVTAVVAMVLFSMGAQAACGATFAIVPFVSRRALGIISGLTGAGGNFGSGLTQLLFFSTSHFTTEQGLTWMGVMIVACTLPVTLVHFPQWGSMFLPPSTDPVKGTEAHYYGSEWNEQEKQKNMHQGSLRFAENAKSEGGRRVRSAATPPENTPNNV

Sequence of NRT2.1 S501D, rBiFC fusion (O82811 whole entry S501D, the tested form may be a part): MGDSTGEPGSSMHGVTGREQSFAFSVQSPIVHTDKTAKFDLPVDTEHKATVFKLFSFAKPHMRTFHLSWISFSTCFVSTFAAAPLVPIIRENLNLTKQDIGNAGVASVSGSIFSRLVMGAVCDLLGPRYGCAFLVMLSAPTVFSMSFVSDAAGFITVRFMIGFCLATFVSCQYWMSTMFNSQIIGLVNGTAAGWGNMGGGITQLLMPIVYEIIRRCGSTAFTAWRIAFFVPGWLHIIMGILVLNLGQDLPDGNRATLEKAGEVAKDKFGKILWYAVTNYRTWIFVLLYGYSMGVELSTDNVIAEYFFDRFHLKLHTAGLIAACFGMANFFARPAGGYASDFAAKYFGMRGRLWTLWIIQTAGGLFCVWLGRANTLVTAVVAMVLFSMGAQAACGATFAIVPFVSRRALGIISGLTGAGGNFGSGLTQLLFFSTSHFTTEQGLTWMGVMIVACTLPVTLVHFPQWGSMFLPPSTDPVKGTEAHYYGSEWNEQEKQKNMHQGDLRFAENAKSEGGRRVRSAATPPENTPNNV
Sequence of NRT2.1 S501A, rBiFC fusion (O82811 whole entry S501A, the tested form may be a part): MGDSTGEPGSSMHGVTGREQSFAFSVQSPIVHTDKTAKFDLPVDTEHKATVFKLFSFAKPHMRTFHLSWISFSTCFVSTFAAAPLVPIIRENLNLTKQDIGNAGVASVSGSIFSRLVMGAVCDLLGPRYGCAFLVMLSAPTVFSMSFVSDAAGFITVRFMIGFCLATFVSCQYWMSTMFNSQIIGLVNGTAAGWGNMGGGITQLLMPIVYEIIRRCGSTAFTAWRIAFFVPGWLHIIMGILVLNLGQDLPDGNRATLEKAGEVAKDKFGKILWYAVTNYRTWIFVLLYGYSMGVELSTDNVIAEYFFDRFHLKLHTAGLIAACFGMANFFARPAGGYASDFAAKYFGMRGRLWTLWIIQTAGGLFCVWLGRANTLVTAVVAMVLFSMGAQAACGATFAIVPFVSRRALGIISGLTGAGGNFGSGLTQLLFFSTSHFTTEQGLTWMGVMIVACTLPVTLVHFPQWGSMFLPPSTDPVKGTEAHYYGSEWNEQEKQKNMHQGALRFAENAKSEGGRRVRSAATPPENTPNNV

YFP fluorescence as percent of RFP fluorescence (rBiFC) [1]: ~50 % of RFP fluorescence
YFP fluorescence as percent of RFP fluorescence (rBiFC) [2]: ~50 % of RFP fluorescence
YFP fluorescence as percent of RFP fluorescence (rBiFC) [3]: ~40 % of RFP fluorescence
B1: NAR2.1, rBiFC fusion (natural protein, Arabidopsis thaliana, UniProt Q9FGS5 23-210, looked up)
chain: AEKVRLFKELDKGALDVTTKPSREGPGVVLDAGKDTLNITWTLSSIGSKREAEFKIIKVKLCYAPPSQVDRPWRKTHDELFKDKTCPHKIIAKPYDKTLQSTTWTLERDIPTGTYFVRAYAVDAIGHEVAYGQSTDDAKKTNLFSVQAISGRHASLDIASICFSVFSVVALVVFFVNEKRKAKIEQSK
